Data taken from PMC8213124, “Chemokines act as phosphatidylserine-bound “find-me” signals in apoptotic cell clearance” (PLoS Biology, 2021).

Target: the molecule itself
Test: cross-linking; 50 ng chemokine in 20 mM HEPES, 30 min at room temperature without or with phospholipid (brain PE, PC, PS or heart CL; 1:8 chemokine:total lipid molar ratio), then 0.25 mM BS3 for 30 min; SDS-PAGE and immunoblot with anti-chemokine antibodies

B1: CXCL9 (natural protein, human, UniProt Q07325 23-125, looked up)
chain: TPVVRKGRCSCISTNQGTIHLQSLKDLKQFAPSPSCEKIEIIATLKNGVQTCLNPDSADVKELIKKWEKQVSQKKKQKNGKKHQKKKVLKVRKSQRSRQKKTT
notes: human chemokine CXCL9, untagged recombinant protein; source: bought: Peprotech, recombinant, produced in Escherichia coli
B1: binds.

B2: CXCL11 (natural protein, human, UniProt O14625 22-94, looked up)
chain: FPMFKRGRCLCIGPGVKAVKVADIEKASIMYPSNNCDKIEVIITLKENKGQRCLNPKSKQARLIIKKVERKNF
notes: human chemokine CXCL11, untagged recombinant protein; source: bought: Peprotech, recombinant, produced in Escherichia coli
B2: binds.
